Changes are numbered by the printed parent chain.
B1: REPSAis control (dsDNA)
DNA 1: CTAGGAATTCGTGCAGAGGTGAATCGTCATAGAATTCGTTACCATCCCTCCAGAAGCTTGGACA
DNA 2: TGTCCAAGCTTCTGGAGGGATGGTAACGAATTCTATGACGATTCACCTCTGCACGAATTCCTAG
B2: m1 (dsDNA)
DNA 1: CTAGGAATTCGTGCAGAGGTGAATGTGACCGATCGGTCAGTTACCATCCCTCCAGAAGCTTGGACA
DNA 2: TGTCCAAGCTTCTGGAGGGATGGTAACTGACCGATCGGTCACATTCACCTCTGCACGAATTCCTAG
B3: m2 (dsDNA)
DNA 1: B2 DNA 1 with G25C, T26G
DNA 2: B2 DNA 2 with A41C, C42G
B4: m3 (dsDNA)
DNA 1: B2 DNA 1 with G25C, G27C
DNA 2: B2 DNA 2 with C40G, C42G
B5: m4 (dsDNA)
DNA 1: B2 DNA 1 with G25C, A28C
DNA 2: B2 DNA 2 with T39G, C42G
B6: m5 (dsDNA)
DNA 1: B2 DNA 1 with G25C, C29T
DNA 2: B2 DNA 2 with G38A, C42G
B7: m6 (dsDNA)
DNA 1: B2 DNA 1 with G25C, C30G
DNA 2: B2 DNA 2 with G37C, C42G
B8: m7 (dsDNA)
DNA 1: B2 DNA 1 with G25C, G31C
DNA 2: B2 DNA 2 with C36G, C42G
B9: m8 (dsDNA)
DNA 1: B2 DNA 1 with G25C, A32C
DNA 2: B2 DNA 2 with T35G, C42G

Legend:
[1] = target: T1, TTHB023 (PfmR) (Thermus thermophilus HB8) (UniProt Q53WD9); test: BLI; settings: BLI: 20 mM Tris-Cl pH 7.7, 100 mM NaCl, 1 mM EDTA, 0.05% Tween 20, 1.4 nM biotin-DNA loaded at 37 °C, 3.7-300 nM protein; EMSA: 1x NEB CutSmart buffer, 55 °C …
T1 sequence: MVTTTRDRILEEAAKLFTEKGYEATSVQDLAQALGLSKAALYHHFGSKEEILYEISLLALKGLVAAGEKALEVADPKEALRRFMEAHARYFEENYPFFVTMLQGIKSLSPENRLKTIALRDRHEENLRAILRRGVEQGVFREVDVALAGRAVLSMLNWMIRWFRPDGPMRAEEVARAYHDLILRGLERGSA

TTHB023 (PfmR) [2] = target: T2, TTHB023 (PfmR) (Thermus thermophilus HB8, UniProt Q53WD9 1-191); test: BLI; slight effect only at 300 nM, nonspecific; Kd extrapolated; BLI: 20 mM Tris-Cl pH 7.7, 100 mM NaCl, 1 mM EDTA, 0.05% Tween 20, 1.4 nM biotin-DNA loaded at 37 °C, 3.7-300 nM protein; EMSA: 1x NEB CutSmart buffer, 55 °C 20 min, 1 ng DNA in 5 µL, 10% native PAGE; settings: protein: recombinant; chain copies: 2; label: 5' biotin-dT on strand 2; blunt
T2 sequence: T1 sequence

TTHB023 (PfmR) [3] = target: T2, TTHB023 (PfmR); test: BLI; printed koff/kon (1.072e-4/2.350e5) does not match printed KD; BLI: 20 mM Tris-Cl pH 7.7, 100 mM NaCl, 1 mM EDTA, 0.05% Tween 20, 1.4 nM biotin-DNA loaded at 37 °C, 3.7-300 nM protein; EMSA: 1x NEB CutSmart buffer, 55 °C 20 min, 1 ng DNA in 5 µL, 10% native PAGE; settings: protein: recombinant; chain copies: 2; label: 5' biotin-dT on strand 2; blunt
TTHB023 (PfmR) [4] = target: T2, TTHB023 (PfmR); test: BLI; BLI: 20 mM Tris-Cl pH 7.7, 100 mM NaCl, 1 mM EDTA, 0.05% Tween 20, 1.4 nM biotin-DNA loaded at 37 °C, 3.7-300 nM protein; EMSA: 1x NEB CutSmart buffer, 55 °C 20 min, 1 ng DNA in 5 µL, 10% native PAGE; settings: protein: recombinant; chain copies: 2; label: 5' biotin-dT on strand 2; blunt

Molecule	Kd (TTHB023 (PfmR) [4]) [nM]	further results
CTAGGAATTCGTGCAGAGGTGAATCTGACCGATCGGTCAGTTACCATCCCTCCAGAAGCTTGGACA (double strand) [ST2_B023_R6_wt consensus (BLI probe)]		Kd [1]: 2.1 nM
B1		Kd (TTHB023 (PfmR) [2]): 138000 nM
B2		Kd (TTHB023 (PfmR) [3]): 4.56 nM
B3	23	
B4	6.62	
B5	27.8	
B6	53.1	
B7	279	
B8	205	
B9	59.5	
